Measured values reported in US20110245474A1 (PFENEX, published 2011).

Target: T1, recombinant human granulocyte colony stimulating factor receptor (GCSF-R) (R & D Systems, cat# 381GR/CF), … (human, UniProt Q99062 25-621, limits assumed, biotinylated using NHS-LC-LC-biotin (sites not given))
T1 construct: Bought reagent; also called b-GCSF-R; G-CSF receptor
T1 sequence (looked up): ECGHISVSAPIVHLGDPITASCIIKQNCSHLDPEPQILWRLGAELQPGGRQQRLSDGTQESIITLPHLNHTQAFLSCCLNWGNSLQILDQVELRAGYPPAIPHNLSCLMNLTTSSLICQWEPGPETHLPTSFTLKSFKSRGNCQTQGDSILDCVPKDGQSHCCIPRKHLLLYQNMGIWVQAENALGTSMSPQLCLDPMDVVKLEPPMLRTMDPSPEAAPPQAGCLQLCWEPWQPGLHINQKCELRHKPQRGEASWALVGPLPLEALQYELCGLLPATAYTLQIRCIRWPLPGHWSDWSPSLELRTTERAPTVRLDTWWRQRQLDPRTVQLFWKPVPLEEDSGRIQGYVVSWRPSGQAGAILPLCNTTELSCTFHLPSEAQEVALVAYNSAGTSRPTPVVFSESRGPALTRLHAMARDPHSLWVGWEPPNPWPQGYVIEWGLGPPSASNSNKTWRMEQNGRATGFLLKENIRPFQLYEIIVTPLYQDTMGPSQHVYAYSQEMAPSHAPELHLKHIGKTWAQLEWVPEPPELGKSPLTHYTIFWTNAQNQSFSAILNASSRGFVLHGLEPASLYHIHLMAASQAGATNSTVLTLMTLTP
Assay: biolayer interferometry (Octet), biotinylated GCSF-R on streptavidin sensors, soluble lysate fractions, used to quantify the protein against a standard curve
Procedure: Soluble fractions were prepared by sonication followed by centrifugation. Normalized culture broth samples (400 μL) were sonicated with the Cell Lysis Automated Sonication System (CLASS, Scinomix) with a 24 probe tip horn. The lysates were centrifuged at 14,000×rpm for 20 minutes (4° C.) and the supernatants collected (soluble fraction). Further dilutions of soluble samples for biolayer interferometry analysis were performed in ForteBio's Sample Diluent (PN, described below).
The lyophilized recombinant human granulocyte colony stimulating factor receptor (GCSF-R) (R & D Systems, cat# 381GR/CF) was reconstituted in PBS buffer (Sigma, P3813) to 0.5 mg/mL and biotinylated using NHS-LC-LC-biotin (Pierce, 21343) according to the method described in ForteBio Technical Note: “Biotinylation of Protein for Immobilization onto Streptavidin Sensors.” The biosensors (Streptavidin High Binding FA Biosensors, ForteBio, 18-0009) were hydrated in 1× kinetics buffer (10-fold dilution of 10× Kinetics Buffer, ForteBio, 18-5032 into PBS) for at least 10 minutes. […]
The soluble fraction of the strain array samples were diluted 20-fold into 1× kinetics buffer. […] The samples were read at 200 rpm, 30° C., for 120 sec, and quantitation was calculated from a standard curve at 12, 6, 3, 1.5, 0.75, 0.375, 0.188, and in some cases as low as 0.094 μg/ml.

binding result: binds
B1: recombinant human G-CSF protein comprising an N-terminal methionine (Met-G-CSF), produced in Pseudomonas fluorescens (ligand)
chain: MTPLGPASSLPQSFLLKCLEQVRKIQGDGAALQEKLCATYKLCHPEELVLLGHSLGIPWAPLSSCPSQALQLAGCLSQLHSGLFLYQGLLQALEGISPELGPTLDTLQLDVADFATTIWQQMEELGMAPALQPTQGAMPAFASAFQRRAGGVLVASHLQSFLEVSYRVLRHLAQP
notes: Tested as soluble fraction of P. fluorescens lysates, diluted, not purified; also called hG-CSF
